These results are taken from patent US20250368729A1 (ATTRALUS, published 2025).

As usually defined, the EC50 is the concentration at which the effect is half-maximal. The Kd is the free concentration of one partner at which half of the binding sites on the other are occupied at equilibrium, for simple one-to-one binding. Usually koff stands for the rate constant with which the complex falls apart. A higher koff goes with a short-lived complex. For orientation: kon means the rate constant with which the complex forms. A low value points to slow association.

One assay addresses T1, TYL ALλ amyloid extract.
T1 construct: Tissue amyloid extract; also called ALλ TYL extract
Nature of the assay: pulldown, labelled antibody.

The target of assay [1] is T2, TAL ALκ liver amyloid extract.
T2 construct: Tissue amyloid extract; also called ALκTAL extract
Nature of the assay: pulldown, labelled antibody.

Another assay concerns the target T3, HIG ALκ1 amyloid extract.
T3 construct: Tissue amyloid extract; also called ALκ HIG extract
As to the kind of experiment: pulldown, labelled antibody.

In assay [2] the target is T4, Per125 wtATTR amyloid extract (human, UniProt P02766 21-147). As to the kind of experiment: pulldown, labelled antibody.
For assay [3], the target named is Per253 wild type (wt) ATTR amyloid extract (human, UniProt P02766 21-147). As to the kind of experiment: pulldown, labelled antibody.
Assay [4] addresses T5, synthetic amyloid-like fibrils of recombinant amyloidogenic λ6 variable domain protein (rVλ6Wil).
T5 construct: domain: λ6 variable domain; Fibrillar aggregate of many copies; also called rVλ6Wil fibrils; rVλ6Wil synthetic fibrils
As to the kind of experiment: pulldown, labelled antibody.

The target in assay [5] is T6, SHI ALλ liver amyloid extract.
T6 construct: Tissue amyloid extract; also called SHI AL liver extract; ALλ SHI extract
Nature of the assay: pulldown, labelled antibody.

The target of assay [6] is T5, synthetic amyloid-like fibrils of …. Nature of the assay: pulldown, 125I-labelled antibody.
Assay [7] deals with T2, TAL ALκ liver amyloid extract. As to the kind of experiment: EuLISA, substrate coated on plate. On the procedure: (§1) To perform europium-linked immunosorbent assays (EuLISAs), suspensions of rVλ6Wil fibrils (sonicated) were prepared at 0.83 μM in phosphate buffered saline (PBS). The fibrils were coated onto the wells of a 96-well microplate by adding 50 μL to each well. The plates dried at 37° C. overnight. The wells of the microplate were blocked by addition of Superblock (Thermofisher) (SB) using 200 µL/well, and left at 37° C. for 1 hour. The primary (test) antibody (i.e., the humanized antibody) were added, prepared in SB+0.05% tween 20 (SBT) in a 1:2 dilution series starting at 1 μM using 100 µL/well. Plates were then incubated for 1 hour at 37° C. After a wash step (plates were washed three times using PBS+0.05% tween 20), secondary antibody was added as a 1:3000 dilution of biotinylated goat anti-human IgG (Sigma) in SBT at 100 µL/well. The plates were incubated for 1 hour at 37° C. After another wash step, 100 µL/well of a 1:1000 dilution of europium/streptavidin (Perkin Elmer) in SBT was added. The plates were incubated for 1 hour at 37° C. After a final wash step, 100 μL/well of europium enhancement solution (Perkin Elmer) was added. Time-resolved fluorescence emission was detected using a microplate reader (Wallac).
(§2) Table 8, below, provides the results of the ELISAs measuring the ability of mIgp5, hIgG1, c11-1F4, m11-1F4, VH6/VL3-p5, VH9/VL4-p5, and VH9/VL4-p5R to bind rVλ6Wil fibrils, Per125 wtATTR extract, KEN hATTR extract, SHI ALλ liver extract, and TAL ALκliver extract. For each combination of antibody and substrate, the Log-transformed EC₅₀, EC₅₀, and maximal level of binding in the assay is shown. Conditions labeled “na” were not tested.

Assay [8] addresses T4, Per125 wtATTR amyloid extract. Nature of the assay: EuLISA, substrate coated on plate. On the procedure: as §1, §2
Assay [9] concerns the target T5, synthetic amyloid-like fibrils of …. Nature of the assay: EuLISA, substrate coated on plate. How it is done:
as §1, §2

Assay [10] concerns the target T6, SHI ALλ liver amyloid extract. As to the kind of experiment: EuLISA, substrate coated on plate. How it is done: as §1, §2
Assay [11] concerns the target T7, Aβ(1-40) amyloid-like fibrils (UniProt P05067 672-711).
T7 construct: domain: Aβ(1-40); Fibrillar aggregate; The numbers 1-40 count on Aβ, not on the precursor; also called Aβ(1-40) fibrils
As to the kind of experiment: pulldown, labelled antibody.

For the next assay, the target named is T8, hIAPP fibril (UniProt P10997 34-70).
T8 construct: Fibrillar aggregate
T8 chain (looked up): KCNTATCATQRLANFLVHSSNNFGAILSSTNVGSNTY
As to the kind of experiment: pulldown, labelled antibody.

In assay [12] the target is T9, Vκ4Len(1-22) monomer peptide (Homo sapiens (Human), UniProt P06312 21-42).
T9 construct: Free peptide as analyte in SPR; also called Vκ4(LEN(1-22) beads)
T9 peptide: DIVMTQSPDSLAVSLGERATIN
Nature of the assay: pulldown, labelled antibody, peptide on beads.

The target of assay [13] is T5, synthetic amyloid-like fibrils of …. As to the kind of experiment: EuLISA, fibrils coated on plate (FIG. 13B).
Assay [14] deals with T10, Per125 wtATTR amyloid extract (human, UniProt P02766 21-147). As to the kind of experiment: pulldown, labelled antibody. The source holds these as a separate data set.
Assay [15] addresses T10, Per125 wtATTR amyloid extract. Nature of the assay: EuLISA, substrate coated on plate. How it is done:
as §1, §2
This is another data set of the same source.

Assay [16] shares this target. As to the kind of experiment: EuLISA, extract coated on plate.
Assay [17] concerns the target T9, Vκ4Len(1-22) monomer peptide. As to the kind of experiment: SPR Biacore 8K, antibody immobilised, peptide as analyte. How it is done: The affinity of humanized anti-amyloid antibodies binding to Vκ4Len(1-22) (“Len(1-22) monomer”) monomer peptide—the natural ligand for the m11-1F4 antibody—was measured using a Biacore 8K surface plasmon resonance (SPR) system. Parental antibody m11-1F4 binds to an epitope present at the N-terminal of denatured kappa 4 light chain proteins. The Len (1-22) monomer is a peptide comprising this epitope, as described in International Application No. PCT/US2017/015905. Binding affinities of anti-amyloid antibodies incorporating the humanized heavy chain region VH9 and the humanized light chain VL4 were tested, including versions of VH9 and VL4 with additional mutations (Table 5).
All SPR data were processed using the Biacore 8K Evaluation software version 1.1. Flow cell 1 and blank injections of buffer in each cycle were used as double reference for Response Units subtraction.
Table 7 provides the results of SPR assays measuring the binding of the humanized anti-amyloid antibodies to a Len(1-22) Monomer peptide. Specifically, the humanized VH9 and VL4 sequences were tested with or without additional amino acid substitutions, as indicated in the “Ligand” column of Table 7.

Numbering of substitutions follows the chain as printed. Numbers in names are those of the source.

T7 sequence (P05067 672-711 limits assumed): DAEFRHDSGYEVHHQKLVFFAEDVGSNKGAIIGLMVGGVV

B1: murine Ig-peptide fusion Igp5 (murine 11-1F4 with peptide p5 fused to the N-terminus of the light chain) (antibody)
heavy: QVQLKESGPGLVAPSQSLSITCTVSGFSLSSYGVSWVRQPPGKGLEWLGVIWGDGSTNYHPNLMSRLSISKDISKSQVLFKLNSLQTDDTATYYCVTLDYWGQGTSVTVSS
light: AQAGQAGQAQGGGYSKAQKAQAKQAKQAQKAQKAQAKQAKQVTPTVDVVMTQTPLSLPVSLGDQASISCRSSQSLVHRNGNTYLHWYLQKPGQSPKLLIYKVSNRFSGVPDRFSGSGSGTDFTLKISRVEAEDLGLYFCFQTTYVPNTFGGGTKLEIK
notes: Antibody-peptide fusion; unlabelled in the EuLISA; also called mIgp5; mIgG-p5; not shown: murine 11-1F4 (IgG1) CH1 followed by murine IgG2a CH2-CH3 (pFUSE-mIgG2A-Fc); murine 11-1F4 kappa constant region (CL)
Take B1: the percent bound with TYL ALλ amyloid extract was 21%; in [1], 37%; with HIG ALκ1 amyloid extract, 10%; in assay [2], 31%; in assay [3], 17%; in assay [4], 71%. Also, the percent bound in assay [5] turned out to be 34%. Besides, the “fold higher binding than murine 11-1F4” value in assay [6] turned out to be 21 fold. Also, the EC50 came to 3.37 nM in assay [7], 6.24 nM in assay [8], 2.88 nM in [9] and 2.94 nM in assay [10]. The LogEC50 in assay [7] is 8.47 -log(M); in assay [8] it was 8.21 -log(M); in assay [9], 8.54 -log(M); in [10], 8.53 -log(M). The “Max (maximal level of binding)” value in assay [7] amounted to 24.6; in [8], 31.7; in assay [9], 58.5; in [10] it was 24.

B2: VH6/VL3-p5 (humanized VH6/VL3 with peptide p5 fused to the N-terminal of the light chain) (antibody, V domains shown)
VH: QVQLQESGPGLVKPSETLSLTCTVSGFSLSSYGVSWVRQPPGKGLEWLGVIWGDGSTNYHPNLMSRLSISKDTSKNQFSLKLSSVTAADTATYYCVTLDYWGQGTSVTVSS
VL: DVVMTQSPLSLPVTLGQPASISCRSSQSLVHRNGNTYLHWYLQRPGQSPRLLIYKVSNRFSGVPDRFSGSGSGTDFTLKISRVEAEDVGLYFCFQTTYVPNTFGGGTKLEIK
Consider B2, for which the percent bound was found to be 20.6% in assay [11], 22.5% in assay [4], 4.82% with hIAPP fibril and 54.9% in [12]. In addition, the EC50 in [13] was found to be 3 nM; in [9] it was 3.49 nM. For the same molecule, the “fold enhancement of binding over VH6/VL3 (based on EC50)” value in assay [13] is around 30 fold. Further, the LogEC50 in [9] is 8.46 -log(M). Moreover, in assay [9], the “Max (maximal level of binding)” value amounted to 65.3.

B3: VH9/VL4-p5R (humanized VH9/VL4 with peptide p5R fused to the N-terminal of the light chain) (antibody, V domains shown)
VH: B2 VH with V37I, L67V, S68T, K71V, N76S, F78V, S79L, L80F, T92V, V96A
VL: B2 VL with Y41F, L42Q, L90V
As to B3, the percent bound in [4] turned out to be 22.6%; in assay [14] it was 1.12%; in assay [12] it was 50.2%. Moreover, the EC50 was determined as 3.91 nM in assay [9] and 14 nM in [15]. Besides, the LogEC50 in assay [9] was 8.41 -log(M); in [15] it was 7.86 -log(M). For the same molecule, the “Max (maximal level of binding)” value in [9] was 82.7; in [15], 55.7.

B4: VH6/VL3-p5R (humanized VH6/VL3 with peptide p5R fused to the N-terminal of the light chain) (antibody, V domains shown)
VH: B2 VH
VL: B2 VL
On to B4, for which, in assay [16], the EC50 stood at 85 nM. Moreover, in [13], the EC50 is 3 nM and the “fold enhancement of binding over VH6/VL3 (based on EC50)” value was around 30 fold.

B5: murine antibody m11-1F4 (antibody, V domains shown)
VH: B1 heavy
VL: B2 VL with S7T, T14S, Q17D, P18Q, R44K, R50K, V88L
notes: Murine IgG1 kappa; also called murine 11-1F4; m1-1F4
Consider B5, for which the “Max (maximal level of binding)” value is around 35100 in assay [7], 209 in assay [8], 184 in assay [9] and around 1510 in assay [10].

B6: VH9/VL4-p5 (humanized VH9/VL4 with peptide p5 fused to the N-terminal of the light chain) (antibody, V domains shown)
VH: B2 VH with V37I, L67V, S68T, K71V, N76S, F78V, S79L, L80F, T92V, V96A
VL: B2 VL with Y41F, L42Q, L90V
For B6, the percent bound was 24.7% in assay [4], 1.33% in assay [14] and 54.4% in assay [12]. Also, the EC50 stood at 4.05 nM in [9] and 24.5 nM in assay [15]. In addition, the LogEC50 is 8.39 -log(M) in assay [9] and 7.61 -log(M) in assay [15]. Besides, the entries for the “Max (maximal level of binding)” value in assay [9] and in assay [15] were 71 and 58.1, respectively.

B7: chimeric (c) 11-1F4 (antibody, V domains shown)
VH: B1 heavy
VL: B2 VL with S7T, T14S, Q17D, P18Q, R44K, R50K, V88L
notes: also called ch11-1F4; ci1-1F4
Turning to B7, the “Max (maximal level of binding)” value is around 17800 in assay [7], 71.1 in assay [8], 63.9 in assay [9] and 51.3 in assay [10].

B8: VH9 + VL4-G34V (antibody, V domains shown)
VH: B2 VH with V37I, L67V, S68T, K71V, N76S, F78V, S79L, L80F, T92V, V96A
VL: B2 VL with G34V, Y41F, L42Q, L90V
B8: in assay [17], binding was characterised by a dissociation constant (Kd) of 35 nM, the koff worked out at 0.00146 s⁻¹ and the kon was 41800 M⁻¹ s⁻¹.
